For the data set, the system named is Escherichia coli TOP10. As to the kind of experiment: shrunken log2 fold change of peptide-encoding DNA abundance (4.5 h post-induction vs induction); higher = less antimicrobial activity (less host growth inhibition). The settings on record: time post-induction: 4.5 h; library: site-saturation at positions 5, 18, 19, 20.
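Note: peptides expressed intracellularly from a pBAD plasmid library in pooled LB shake-flask culture, induced with 0.3% L-arabinose, DNA abundance read by NGS, three biological replicates, DESeq2 with apeglm shrinkage.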

Turning to RRIRHRPPRLPRPRPRPCGCPRP, the “shrunken log2 fold change” value was -0.0378.
With RRIRSRPPRLPRPRPRPSVPPRP, the “shrunken log2 fold change” value was -0.634.
Under RRIRTRPPRLPRPRPRPQDGPRP stands -0.0217.
As to RRIRWRPPRLPRPRPRPFYTPRP, the “shrunken log2 fold change” value was -0.575.
Under RRIRLRPPRLPRPRPRPFQQPRP stands 0.0873; under RRIRYRPPRLPRPRPRPVDHPRP, -0.328.
For RRIRGRPPRLPRPRPRPRRPPRP the value was 0.756; for RRIRSRPPRLPRPRPRPPQDPRP, 0.264; for RRIRCRPPRLPRPRPRPAHEPRP, 0.238.
With RRIRNRPPRLPRPRPRPPLPPRP, the “shrunken log2 fold change” value was 0.363.
Under RRIRKRPPRLPRPRPRPRCLPRP stands 0.226.
For the sequence RRIRKRPPRLPRPRPRPHFYPRP, the “shrunken log2 fold change” value is -0.0034.
Turning to RRIRIRPPRLPRPRPRPKKTPRP, the “shrunken log2 fold change” value is -0.235.
Consider RRIRCRPPRLPRPRPRPPFRPRP, for which the “shrunken log2 fold change” value worked out at 0.377.
Take RRIRCRPPRLPRPRPRPECFPRP: the “shrunken log2 fold change” value was 0.165.
Under RRIRIRPPRLPRPRPRPWLYPRP stands -0.0424; under RRIRQRPPRLPRPRPRPVTRPRP, 0.0193.
In the case of RRIRYRPPRLPRPRPRPSMGPRP, the “shrunken log2 fold change” value is -0.613.
Consider RRIRGRPPRLPRPRPRPARCPRP, for which the “shrunken log2 fold change” value stood at 0.749.
For RRIRMRPPRLPRPRPRPSGNPRP, the “shrunken log2 fold change” value is -0.14.
As to RRIRNRPPRLPRPRPRPEDMPRP, the “shrunken log2 fold change” value was -0.0541.
For RRIRVRPPRLPRPRPRPCFGPRP, the “shrunken log2 fold change” value was -0.263.
Under RRIRIRPPRLPRPRPRPSATPRP stands -0.17; under RRIRDRPPRLPRPRPRPKEAPRP, -0.0217; under RRIRARPPRLPRPRPRPILAPRP, 0.147.
As to RRIRSRPPRLPRPRPRPWQYPRP, the “shrunken log2 fold change” value was 0.0433.
With RRIRSRPPRLPRPRPRPPTYPRP, the “shrunken log2 fold change” value was -0.243.
With RRIRPRPPRLPRPRPRPERAPRP, the “shrunken log2 fold change” value came out at 1.17.
With RRIRNRPPRLPRPRPRPYISPRP, the “shrunken log2 fold change” value amounted to 0.00753.
Under RRIRDRPPRLPRPRPRPTQAPRP stands 0.017.
Regarding RRIRHRPPRLPRPRPRPQPMPRP, the “shrunken log2 fold change” value is -0.109.
RRIRNRPPRLPRPRPRPAQKPRP: the “shrunken log2 fold change” value turned out to be 0.918.
On to RRIRNRPPRLPRPRPRPIYEPRP, for which the “shrunken log2 fold change” value is -0.232.
Consider RRIRKRPPRLPRPRPRPVVQPRP, for which the “shrunken log2 fold change” value stood at 0.242.
As to RRIRGRPPRLPRPRPRPKLCPRP, the “shrunken log2 fold change” value is 0.75.
For RRIRPRPPRLPRPRPRPNDKPRP the value was -0.52; for RRIRVRPPRLPRPRPRPIGIPRP, -0.415.
For RRIRIRPPRLPRPRPRPDAKPRP the value was 0.0898; for RRIRARPPRLPRPRPRPREPPRP, 0.199; for RRIRERPPRLPRPRPRPIHLPRP, -0.0986.
Take RRIRFRPPRLPRPRPRPHLNPRP: the “shrunken log2 fold change” value was -0.624.
RRIRWRPPRLPRPRPRPTCRPRP: the “shrunken log2 fold change” value was 0.0452.
For RRIRMRPPRLPRPRPRPKSFPRP, the “shrunken log2 fold change” value was -0.015.
Turning to RRIRWRPPRLPRPRPRPSQIPRP, the “shrunken log2 fold change” value is -0.165.
For RRIRRRPPRLPRPRPRPVIGPRP the value was 0.149; for RRIRKRPPRLPRPRPRPQIHPRP, 0.0287; for RRIRWRPPRLPRPRPRPGGVPRP, 0.427.
With RRIRLRPPRLPRPRPRPAVKPRP, the “shrunken log2 fold change” value is -0.131.
With RRIRPRPPRLPRPRPRPEHYPRP, the “shrunken log2 fold change” value was -0.106.
For RRIRTRPPRLPRPRPRPYHQPRP the value was -0.182; for RRIRNRPPRLPRPRPRPAQGPRP, 0.279.
Take RRIRQRPPRLPRPRPRPGMEPRP: the “shrunken log2 fold change” value was determined as 0.0952.
In the case of RRIRQRPPRLPRPRPRPDVHPRP, the “shrunken log2 fold change” value is -0.304.
For the sequence RRIRMRPPRLPRPRPRPCGSPRP, the “shrunken log2 fold change” value was -0.0626.
Under RRIRQRPPRLPRPRPRPMYRPRP stands 0.0341; under RRIRTRPPRLPRPRPRPFIKPRP, -0.57.
As for RRIRCRPPRLPRPRPRPTIRPRP, the “shrunken log2 fold change” value is -0.312.
On to RRIRWRPPRLPRPRPRPSDFPRP, for which the “shrunken log2 fold change” value is 0.0215.
Under RRIRCRPPRLPRPRPRPCARPRP stands 0.174; under RRIRPRPPRLPRPRPRPDSNPRP, -0.221; under RRIRIRPPRLPRPRPRPGPIPRP, -0.329.
As to RRIRGRPPRLPRPRPRPRKIPRP, the “shrunken log2 fold change” value turned out to be 0.829.
As to RRIRNRPPRLPRPRPRPTWDPRP, the “shrunken log2 fold change” value was -0.0897.
On to RRIRFRPPRLPRPRPRPIYTPRP, for which the “shrunken log2 fold change” value was -0.424.
Regarding RRIRVRPPRLPRPRPRPTPFPRP, the “shrunken log2 fold change” value is 0.279.
For RRIRGRPPRLPRPRPRPADKPRP, the “shrunken log2 fold change” value stood at 0.365.
Take RRIRYRPPRLPRPRPRPFNNPRP: the “shrunken log2 fold change” value is 2.81.
For RRIRMRPPRLPRPRPRPNWWPRP, the “shrunken log2 fold change” value was -0.0136.
For the sequence RRIRDRPPRLPRPRPRPVTVPRP, the “shrunken log2 fold change” value was -0.135.
RRIRCRPPRLPRPRPRPQGTPRP: the “shrunken log2 fold change” value was -0.35.
Turning to RRIRVRPPRLPRPRPRPMVQPRP, the “shrunken log2 fold change” value stood at 0.159.
Consider RRIRCRPPRLPRPRPRPTDRPRP, for which the “shrunken log2 fold change” value was 0.15.
In the case of RRIRFRPPRLPRPRPRPGCLPRP, the “shrunken log2 fold change” value is -0.0626.
Take RRIRFRPPRLPRPRPRPGLEPRP: the “shrunken log2 fold change” value is -0.0646.
With RRIRYRPPRLPRPRPRPNQDPRP, the “shrunken log2 fold change” value was -0.406.
On to RRIRLRPPRLPRPRPRPCALPRP, for which the “shrunken log2 fold change” value was -0.0607.
In the case of RRIRTRPPRLPRPRPRPVLGPRP, the “shrunken log2 fold change” value was 0.304.
As for RRIRQRPPRLPRPRPRPHCDPRP, the “shrunken log2 fold change” value is 0.0241.
Consider RRIRARPPRLPRPRPRPDDCPRP, for which the “shrunken log2 fold change” value was 0.167.
With RRIRVRPPRLPRPRPRPYASPRP, the “shrunken log2 fold change” value is 0.00213.
RRIRWRPPRLPRPRPRPLRCPRP: the “shrunken log2 fold change” value stood at 0.242.
Regarding RRIRRRPPRLPRPRPRPPYAPRP, the “shrunken log2 fold change” value amounted to 0.774.
For RRIRWRPPRLPRPRPRPPNCPRP the value was -0.11; for RRIRGRPPRLPRPRPRPRHKPRP, 0.149; for RRIRDRPPRLPRPRPRPYGQPRP, -0.0816.
Take RRIRWRPPRLPRPRPRPRLQPRP: the “shrunken log2 fold change” value turned out to be 0.642.
In the case of RRIRERPPRLPRPRPRPYEAPRP, the “shrunken log2 fold change” value is -0.59.
With RRIRARPPRLPRPRPRPMMNPRP, the “shrunken log2 fold change” value turned out to be 0.198.
For RRIRARPPRLPRPRPRPITYPRP, the “shrunken log2 fold change” value was -0.0353.
Take RRIRIRPPRLPRPRPRPVVVPRP: the “shrunken log2 fold change” value was -0.0561.
For RRIRERPPRLPRPRPRPTSFPRP the value was 0.0302.
Turning to RRIRGRPPRLPRPRPRPTWDPRP, the “shrunken log2 fold change” value came to 1.01.
Take RRIRDRPPRLPRPRPRPERCPRP: the “shrunken log2 fold change” value worked out at 0.426.
For RRIRTRPPRLPRPRPRPWCSPRP the value was -0.799.
Take RRIRHRPPRLPRPRPRPDKPPRP: the “shrunken log2 fold change” value was -0.0375.
For the sequence RRIRYRPPRLPRPRPRPHPIPRP, the “shrunken log2 fold change” value was -0.0356.
On to RRIRARPPRLPRPRPRPHTSPRP, for which the “shrunken log2 fold change” value was -0.218.
Under RRIRRRPPRLPRPRPRPVEMPRP stands 0.483.
Regarding RRIRRRPPRLPRPRPRPHTFPRP, the “shrunken log2 fold change” value was -0.108.
Under RRIRQRPPRLPRPRPRPESQPRP stands -0.0174; under RRIRERPPRLPRPRPRPTYVPRP, -0.132; under RRIRFRPPRLPRPRPRPAFGPRP, 0.21.
For RRIRGRPPRLPRPRPRPDPCPRP the value was 0.624; for RRIRYRPPRLPRPRPRPRAAPRP, -0.0447; for RRIRIRPPRLPRPRPRPIKSPRP, -0.462.
RRIRDRPPRLPRPRPRPMGTPRP: the “shrunken log2 fold change” value is -0.106.
In the case of RRIRMRPPRLPRPRPRPDKKPRP, the “shrunken log2 fold change” value is -0.0148.
As to RRIRQRPPRLPRPRPRPHTRPRP, the “shrunken log2 fold change” value was 0.107.
Under RRIRRRPPRLPRPRPRPDNVPRP stands -0.211.
Regarding RRIRNRPPRLPRPRPRPDAEPRP, the “shrunken log2 fold change” value is 0.45.
As to RRIRGRPPRLPRPRPRPMWCPRP, the “shrunken log2 fold change” value came out at 0.667.
As to RRIRIRPPRLPRPRPRPSGFPRP, the “shrunken log2 fold change” value is -0.175.
Take RRIRYRPPRLPRPRPRPVKWPRP: the “shrunken log2 fold change” value is 0.0689.
For the sequence RRIRRRPPRLPRPRPRPRTSPRP, the “shrunken log2 fold change” value was found to be 0.108.
For RRIRQRPPRLPRPRPRPVEWPRP the value was 0.0152; for RRIRVRPPRLPRPRPRPCVEPRP, 0.0543; for RRIRPRPPRLPRPRPRPTETPRP, 0.132.
With RRIRCRPPRLPRPRPRPSHLPRP, the “shrunken log2 fold change” value was -0.53.
Turning to RRIRTRPPRLPRPRPRPADFPRP, the “shrunken log2 fold change” value came out at 0.0361.
Regarding RRIRHRPPRLPRPRPRPTVPPRP, the “shrunken log2 fold change” value was -0.0133.
For RRIRHRPPRLPRPRPRPDFWPRP the value was 0.372; for RRIRTRPPRLPRPRPRPHYDPRP, -0.302.
As to RRIRFRPPRLPRPRPRPHCRPRP, the “shrunken log2 fold change” value was -0.0499.
Regarding RRIRLRPPRLPRPRPRPTDQPRP, the “shrunken log2 fold change” value came out at 0.0347.
Regarding RRIRKRPPRLPRPRPRPSCYPRP, the “shrunken log2 fold change” value was -0.0656.

The record behind these values is the supplement of paper PMC9112550, “Optimization of the antimicrobial peptide Bac7 by deep mutational scanning” (BMC Biology, 2022).
